# How the values were obtained:
# Test in all cases: cell-based or functional assay
# [1] = target: HIV-1 pseudovirus 263-8 (envelope glycoprotein) (HIV-1)
# [2] = target: HIV-1 pseudovirus SC05.8C11.2344 (envelope glycoprotein) (HIV-1)
# [3] = target: HIV-1 pseudovirus 6952.v1.c20 (envelope glycoprotein) (HIV-1)
# [4] = target: HIV-1 pseudovirus X1193_c1 (envelope glycoprotein) (HIV-1)
# [5] = target: HIV-1 pseudovirus Ce1176_A3 (envelope glycoprotein) (HIV-1)
# [6] = target: HIV-1 pseudovirus AC10.0.29 (envelope glycoprotein) (HIV-1)
Binder,neutralization IC50 [1],neutralization IC80 [1],neutralization IC50 [2],neutralization IC80 [2],neutralization IC50 [3],neutralization IC80 [3],neutralization IC50 [4],neutralization IC80 [4],neutralization IC50 [5],neutralization IC80 [5],neutralization IC50 [6],neutralization IC80 [6]
MS-103 (antibody) VH: not shown VL: DIVLTQSPLSLSVTPGEPASISCKSSHSLIHGDRNNYLAWYVQKPGRSPQLLIYLASSRASGVPDRFSGSGSDKDFTLKISRVETEDVGTYYCMQGRESPWTFGQGTKVDIKRTVAAPSVFIFPPSDEQLKSGTASVVCLLNNFYPREAKVQWKVDNALQSGNSQESVTEQDSKDSTYSLSSTLTLSKADYEKHKVYACEVTHQGLSSPVTKSFNRGEC,0.018 µg/mL,0.07 µg/mL,0.707 µg/mL,2.44 µg/mL,0.485 µg/mL,5.95 µg/mL,0.112 µg/mL,0.502 µg/mL,0.172 µg/mL,3.13 µg/mL,0.07 µg/mL,0.334 µg/mL
MS-109 (antibody) VH: not shown VL: DFVLTQSPLSLSVTPGEPASISCKSSHSLIHGDRNNYLAWYVQKPGRSPQLLIYLASSRASGVPDRFSGSGSGKDFTLKISRVETEDVGTYYCMQGRESPWTFGQGTKVDIKRTVAAPSVFIFPPSDEQLKSGTASVVCLLNNFYPREAKVQWKVDNALQSGNSQESVTEQDSKDSTYSLSSTLTLSKADYEKHKVYACEVTHQGLSSPVTKSFNRGEC,0.01 µg/mL,0.033 µg/mL,0.546 µg/mL,1.85 µg/mL,0.188 µg/mL,1.74 µg/mL,0.073 µg/mL,0.467 µg/mL,0.078 µg/mL,5.83 µg/mL,0.04 µg/mL,0.199 µg/mL
MS-111 (antibody) VH: not shown VL: DFVLTQSPLSLSVTPGESASISCKSSHSLIHGDRNNYLAWYVQKPGRSPQLLIYLASSRASGVPDRFSGSGSGKDFTLKISRVEAEDVGTYYCMQGRESPWTFGQGTKVDIKRTVAAPSVFIFPPSDEQLKSGTASVVCLLNNFYPREAKVQWKVDNALQSGNSQESVTEQDSKDSTYSLSSTLTLSKADYEKHKVYACEVTHQGLSSPVTKSFNRGEC,0.016 µg/mL,0.045 µg/mL,0.496 µg/mL,1.69 µg/mL,0.213 µg/mL,2.1 µg/mL,0.109 µg/mL,0.352 µg/mL,0.082 µg/mL,3.12 µg/mL,0.061 µg/mL,0.258 µg/mL
MS-104 (antibody) VH: not shown VL: DIVLTQSPLSLSVTPGESASISCKSSHSLIHGDRNNYLAWYVQKPGRSPQLLIYLASSRASGVPDRFSGSGSGKDFTLKISRVETEDVGTYYCMQGRESPWTFGQGTKVDIKRTVAAPSVFIFPPSDEQLKSGTASVVCLLNNFYPREAKVQWKVDNALQSGNSQESVTEQDSKDSTYSLSSTLTLSKADYEKHKVYACEVTHQGLSSPVTKSFNRGEC,0.014 µg/mL,0.052 µg/mL,0.512 µg/mL,1.73 µg/mL,0.457 µg/mL,8.61 µg/mL,0.063 µg/mL,0.388 µg/mL,0.218 µg/mL,6.11 µg/mL,0.041 µg/mL,0.208 µg/mL
MS-108 (antibody) VH: not shown VL: DIVLTQSPHSLSVTPGESASISCKSSHSLIHGDRNNYLAWYVQKPGRSPQLLIYLASSRASGVPDRFSGSGSGKDFTLKISRVEAEDVGTYYCMQGRESPWTFGQGTKVDIKRTVAAPSVFIFPPSDEQLKSGTASVVCLLNNFYPREAKVQWKVDNALQSGNSQESVTEQDSKDSTYSLSSTLTLSKADYEKHKVYACEVTHQGLSSPVTKSFNRGEC,0.012 µg/mL,0.042 µg/mL,0.428 µg/mL,1.45 µg/mL,0.323 µg/mL,3.37 µg/mL,0.083 µg/mL,0.545 µg/mL,0.117 µg/mL,3.84 µg/mL,0.045 µg/mL,0.216 µg/mL
MS-105 (antibody) VH: not shown VL: DIVLTQSPLSLSVTPGESASISCKSSHSLIHGDRNNYLAWYVQKPGRSPQLLIYLASSRASGVPDRFSGSGSDKDFTLKISRVEAEDVGTYYCMQGRESPWTFGQGTKVDIKRTVAAPSVFIFPPSDEQLKSGTASVVCLLNNFYPREAKVQWKVDNALQSGNSQESVTEQDSKDSTYSLSSTLTLSKADYEKHKVYACEVTHQGLSSPVTKSFNRGEC,0.017 µg/mL,0.062 µg/mL,0.794 µg/mL,2.73 µg/mL,0.706 µg/mL,9.49 µg/mL,0.067 µg/mL,0.417 µg/mL,0.172 µg/mL,3.39 µg/mL,0.051 µg/mL,0.394 µg/mL
MS-110 (antibody) VH: not shown VL: DFVLTQSPLSLSVTPGEPASISCKSSHSLIHGDRNNYLAWYVQKPGRSPQLLIYLASSRASGVPDRFSGSGSDKDFTLKISRVEAEDVGTYYCMQGRESPWTFGQGTKVDIKRTVAAPSVFIFPPSDEQLKSGTASVVCLLNNFYPREAKVQWKVDNALQSGNSQESVTEQDSKDSTYSLSSTLTLSKADYEKHKVYACEVTHQGLSSPVTKSFNRGEC,0.01 µg/mL,0.038 µg/mL,0.914 µg/mL,3.1 µg/mL,0.195 µg/mL,2.12 µg/mL,0.106 µg/mL,0.677 µg/mL,0.097 µg/mL,2.5 µg/mL,0.076 µg/mL,0.285 µg/mL
MS-107 (antibody) VH: not shown VL: DIVLTQSPHSLSVTPGEPASISCKSSHSLIHGDRNNYLAWYVQKPGRSPQLLIYLASSRASGVPDRFSGSGSDKDFTLKISRVEAEDVGTYYCMQGRESPWTFGQGTKVDIKRTVAAPSVFIFPPSDEQLKSGTASVVCLLNNFYPREAKVQWKVDNALQSGNSQESVTEQDSKDSTYSLSSTLTLSKADYEKHKVYACEVTHQGLSSPVTKSFNRGEC,0.016 µg/mL,0.055 µg/mL,0.658 µg/mL,2.28 µg/mL,0.457 µg/mL,8.87 µg/mL,0.13 µg/mL,0.57 µg/mL,0.147 µg/mL,3.99 µg/mL,0.079 µg/mL,0.397 µg/mL
MS-106 (antibody) VH: not shown VL: DIVLTQSPHSLSVTPGEPASISCKSSHSLIHGDRNNYLAWYVQKPGRSPQLLIYLASSRASGVPDRFSGSGSGKDFTLKISRVETEDVGTYYCMQGRESPWTFGQGTKVDIKRTVAAPSVFIFPPSDEQLKSGTASVVCLLNNFYPREAKVQWKVDNALQSGNSQESVTEQDSKDSTYSLSSTLTLSKADYEKHKVYACEVTHQGLSSPVTKSFNRGEC,0.011 µg/mL,0.039 µg/mL,0.411 µg/mL,1.44 µg/mL,0.216 µg/mL,3.8 µg/mL,0.093 µg/mL,0.394 µg/mL,0.099 µg/mL,3.43 µg/mL,0.062 µg/mL,0.299 µg/mL

# Source: patent US20220025021A1 (BETH ISRAEL DEACONESS MEDICAL CENTER, published 2022)
